The target of test [1] is T1, Biotinylated His/Avi-tagged Gαs used in the RaPID selection, GppNHp-bound (human, UniProt P63092 7-394, biotin on the Avi tag (BirA co-expressed)).
T1 construct: Immobilized on streptavidin magnetic beads
As to the kind of experiment: RaPID comparison selection: peptide-mRNA-cDNA complexes on Gαs-immobilized streptavidin beads, qPCR and sequencing. In general terms: In qPCR the cycle at which signal appears reflects the starting amount.

The target in test [2] is T2, Biotinylated Avi-tagged WT Gαs (residues 7-380 of the short isoform of human Gαs), GDP-bound (human, UniProt P63092 7-394, biotin on the Avi tag (BirA)).
T2 construct: Loaded with GDP; Same polypeptide as m7, other nucleotide state; also called biotinylated Gαs WT
Briefly: TR-FRET competition: biotinylated GDP-bound Gαs WT against His-Gβγ(C68S). The method, then: (§1) Biotinylated avi-Gαs (6-end, WT) and avi-Gαi (FL, WT) were diluted to 32 nM (8×) using assay buffer (1× PBS 7.4, 2 mM DTT, 0.1% BSA, 2 mM MgCl₂, 0.05% Tween plus 0.5 mM GDP), followed by mixing with a same volume of 8× streptavidin XL665 stock (32 nM in the assay buffer). 8× His-Gβ/γ (C68S) stock (16 nM) and 8× anti-6His-Tb cryptate stock (0.4 μg/mL) were added into the Gα/XL665 mixtures. Finally, 2× stocks of cyclic peptides were added with the protein mixtures. After incubation at room temperature for 2 hour at room temperature. […] FRET Signal was calculated as the ratio of [Read B]/[Read A].
A general note: TR-FRET usually uses a lanthanide donor and a delayed reading to cut background.

Test [3] concerns the target T2, Biotinylated Avi-tagged WT Gαs …. Briefly: TR-FRET competition: biotinylated Gαs or Gαi (GDP) against His-Gβγ(C68S). The method, then: as §1

Positions of bridges follow the written chain, without caps; N, C: chain ends. Non-standard residues stand in square brackets, D forms with d.

T1 sequence (P63092 other isoform, or with tags, fused parts or gaps limits assumed): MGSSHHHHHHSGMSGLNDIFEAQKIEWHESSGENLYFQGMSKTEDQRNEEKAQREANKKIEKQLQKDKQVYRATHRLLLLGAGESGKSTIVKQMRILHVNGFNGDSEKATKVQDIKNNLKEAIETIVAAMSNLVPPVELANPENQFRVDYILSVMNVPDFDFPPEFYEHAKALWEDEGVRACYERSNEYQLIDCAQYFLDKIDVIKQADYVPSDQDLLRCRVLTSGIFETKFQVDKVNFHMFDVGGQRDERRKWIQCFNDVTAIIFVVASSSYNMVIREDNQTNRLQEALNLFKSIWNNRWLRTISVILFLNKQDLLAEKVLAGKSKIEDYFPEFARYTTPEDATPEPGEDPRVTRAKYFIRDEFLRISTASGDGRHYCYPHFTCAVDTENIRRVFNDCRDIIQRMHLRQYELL
T2 sequence (P63092 other isoform, or with tags, fused parts or gaps limits assumed): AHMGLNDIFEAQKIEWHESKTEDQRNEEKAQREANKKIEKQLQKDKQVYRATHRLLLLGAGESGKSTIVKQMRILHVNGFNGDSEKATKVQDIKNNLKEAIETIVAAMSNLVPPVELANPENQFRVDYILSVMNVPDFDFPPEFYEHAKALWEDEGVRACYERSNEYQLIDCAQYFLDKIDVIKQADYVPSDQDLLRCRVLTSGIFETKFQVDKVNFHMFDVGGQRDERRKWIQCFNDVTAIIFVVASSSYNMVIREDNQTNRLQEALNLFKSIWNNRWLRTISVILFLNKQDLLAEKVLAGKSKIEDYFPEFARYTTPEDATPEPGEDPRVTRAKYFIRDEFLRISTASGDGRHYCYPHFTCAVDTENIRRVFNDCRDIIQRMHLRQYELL

B1: GN3 (peptide)
peptide: {CH2CO}-[dY]NWSNQFDWFLDLCG-NH2
modifications: thioether N-14
SMILES: CC(C)C[C@@H]1NC(=O)[C@H](CC(=O)O)NC(=O)[C@H](CC(C)C)NC(=O)[C@H](Cc2ccccc2)NC(=O)[C@H](Cc2c[nH]c3ccccc23)NC(=O)[C@H](CC(=O)O)NC(=O)[C@H](Cc2ccccc2)NC(=O)[C@H](CCC(N)=O)NC(=O)[C@H](CC(N)=O)NC(=O)[C@H](CO)NC(=O)[C@H](Cc2c[nH]c3ccccc23)NC(=O)[C@H](CC(N)=O)NC(=O)[C@@H](Cc2ccc(O)cc2)NC(=O)CSC[C@@H](C(=O)NCC(N)=O)NC1=O
On to B1, for which the “fold selectivity for GppNHp-bound over GDP-bound Gαs” value (shortened to “fold selectivity for GppNHp-bound”) in test [1] is > 100 fold.

B2: GN8 (peptide)
peptide: {CH2CO}-[dY]QYTYPYLVIDWTCG-NH2
modifications: thioether N-14
SMILES: CC[C@H](C)[C@@H]1NC(=O)[C@H](C(C)C)NC(=O)[C@H](CC(C)C)NC(=O)[C@H](Cc2ccc(O)cc2)NC(=O)[C@@H]2CCCN2C(=O)[C@H](Cc2ccc(O)cc2)NC(=O)[C@H]([C@@H](C)O)NC(=O)[C@H](Cc2ccc(O)cc2)NC(=O)[C@H](CCC(N)=O)NC(=O)[C@@H](Cc2ccc(O)cc2)NC(=O)CSC[C@@H](C(=O)NCC(N)=O)NC(=O)[C@H]([C@@H](C)O)NC(=O)[C@H](Cc2c[nH]c3ccccc23)NC(=O)[C@H](CC(=O)O)NC1=O
Turning to B2, the “fold selectivity for GppNHp-bound” value in test [1] is > 100 fold.

B3: GN1 (peptide)
peptide: {CH2CO}-[dY]QFIEVWPFYLPCG-NH2
modifications: thioether N-13
SMILES: CC[C@H](C)[C@@H]1NC(=O)[C@H](Cc2ccccc2)NC(=O)[C@H](CCC(N)=O)NC(=O)[C@@H](Cc2ccc(O)cc2)NC(=O)CSC[C@@H](C(=O)NCC(N)=O)NC(=O)[C@@H]2CCCN2C(=O)[C@H](CC(C)C)NC(=O)[C@H](Cc2ccc(O)cc2)NC(=O)[C@H](Cc2ccccc2)NC(=O)[C@@H]2CCCN2C(=O)[C@H](Cc2c[nH]c3ccccc23)NC(=O)[C@H](C(C)C)NC(=O)[C@H](CCC(=O)O)NC1=O
notes: the number is its rank in the selection
As for B3, the “fold selectivity for GppNHp-bound” value in test [1] was > 100 fold.

B4: GN11 (peptide)
peptide: {CH2CO}-[dY]LTNWGVYWDQYWCG-NH2
modifications: thioether N-14
SMILES: CC(C)C[C@@H]1NC(=O)[C@@H](Cc2ccc(O)cc2)NC(=O)CSC[C@@H](C(=O)NCC(N)=O)NC(=O)[C@H](Cc2c[nH]c3ccccc23)NC(=O)[C@H](Cc2ccc(O)cc2)NC(=O)[C@H](CCC(N)=O)NC(=O)[C@H](CC(=O)O)NC(=O)[C@H](Cc2c[nH]c3ccccc23)NC(=O)[C@H](Cc2ccc(O)cc2)NC(=O)[C@H](C(C)C)NC(=O)CNC(=O)[C@H](Cc2c[nH]c3ccccc23)NC(=O)[C@H](CC(N)=O)NC(=O)[C@H]([C@@H](C)O)NC1=O
Take B4: in test [1], the “fold selectivity for GppNHp-bound” value is > 100 fold.

B5: GD20-F10L (peptide)
peptide: {CH2CO}-[dY]LITFRQWALNLPCG-NH2
modifications: thioether N-14
SMILES: CC[C@H](C)[C@@H]1NC(=O)[C@H](CC(C)C)NC(=O)[C@@H](Cc2ccc(O)cc2)NC(=O)CSC[C@@H](C(=O)NCC(N)=O)NC(=O)[C@@H]2CCCN2C(=O)[C@H](CC(C)C)NC(=O)[C@H](CC(N)=O)NC(=O)[C@H](CC(C)C)NC(=O)[C@H](C)NC(=O)[C@H](Cc2c[nH]c3ccccc23)NC(=O)[C@H](CCC(N)=O)NC(=O)[C@H](CCCNC(=N)N)NC(=O)[C@H](Cc2ccccc2)NC(=O)[C@H]([C@@H](C)O)NC1=O
notes: Single substitution F10L of GD20; also called cell permeable GD20 analog F10L
Regarding B5, the IC50 – broadly, the concentration that gives 50% inhibition – in test [2] is 14 nM. Further, the “fold selectivity for Gαs over Gαi” value in test [3] came to 100 fold.

B6: GN15 (peptide)
peptide: {CH2CO}-[dY]KYWDFDNFQELYCG-NH2
modifications: thioether N-14
SMILES: CC(C)C[C@@H]1NC(=O)[C@H](CCC(=O)O)NC(=O)[C@H](CCC(N)=O)NC(=O)[C@H](Cc2ccccc2)NC(=O)[C@H](CC(N)=O)NC(=O)[C@H](CC(=O)O)NC(=O)[C@H](Cc2ccccc2)NC(=O)[C@H](CC(=O)O)NC(=O)[C@H](Cc2c[nH]c3ccccc23)NC(=O)[C@H](Cc2ccc(O)cc2)NC(=O)[C@H](CCCCN)NC(=O)[C@@H](Cc2ccc(O)cc2)NC(=O)CSC[C@@H](C(=O)NCC(N)=O)NC(=O)[C@H](Cc2ccc(O)cc2)NC1=O
Regarding B6, the “fold selectivity for GppNHp-bound” value in test [1] was > 100 fold.

B7: GN6 (peptide)
peptide: Ac-[dY]CFYEVWPYYLPCG-NH2
modifications: thioether (positions not given here); also: thioether partner Cys2 or Cys13 not settled
In the case of B7, the “fold selectivity for GppNHp-bound” value in test [1] was > 100 fold.

B8: GN7 (peptide)
peptide: {CH2CO}-[dY]SWPNQFDWFIELCG-NH2
modifications: thioether N-14
SMILES: CC[C@H](C)[C@@H]1NC(=O)[C@H](Cc2ccccc2)NC(=O)[C@H](Cc2c[nH]c3ccccc23)NC(=O)[C@H](CC(=O)O)NC(=O)[C@H](Cc2ccccc2)NC(=O)[C@H](CCC(N)=O)NC(=O)[C@H](CC(N)=O)NC(=O)[C@@H]2CCCN2C(=O)[C@H](Cc2c[nH]c3ccccc23)NC(=O)[C@H](CO)NC(=O)[C@@H](Cc2ccc(O)cc2)NC(=O)CSC[C@@H](C(=O)NCC(N)=O)NC(=O)[C@H](CC(C)C)NC(=O)[C@H](CCC(=O)O)NC1=O
With B8, the “fold selectivity for GppNHp-bound” value in test [1] was > 100 fold.

The values above are taken from patent US20240336657A1, “G-ALPHA-S PEPTIDE INHIBITORS AND USES THEREOF” (The Regents of the University of California, priority 2021, published 2024).
